# System: Escherichia coli TOP10
# Assay: shrunken log2 fold change of peptide-encoding DNA abundance (4.5 h post-induction vs induction); higher = less antimicrobial activity (less host growth inhibition)
# Settings: time post-induction: 4.5 h; library: site-saturation at positions 5, 18, 19, 20
# 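Note: peptides expressed intracellularly from a pBAD plasmid library in pooled LB shake-flask culture, induced with 0.3% L-arabinose, DNA abundance read by NGS, three biological replicates, DESeq2 with apeglm shrinkage.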
row,Sequence,shrunken log2 fold change
1,RRIRQRPPRLPRPRPRPCLYPRP,-0.29
2,RRIRYRPPRLPRPRPRPTFEPRP,-0.274
3,RRIRPRPPRLPRPRPRPLAYPRP,-0.074
4,RRIRDRPPRLPRPRPRPSRQPRP,-0.12
5,RRIRMRPPRLPRPRPRPYDMPRP,-0.0585
6,RRIRVRPPRLPRPRPRPPMSPRP,-0.249
7,RRIRRRPPRLPRPRPRPYHQPRP,-0.0224
8,RRIRERPPRLPRPRPRPPWFPRP,0.0508
9,RRIRPRPPRLPRPRPRPFRKPRP,-0.0819
10,RRIRVRPPRLPRPRPRPCKPPRP,-0.692
11,RRIRHRPPRLPRPRPRPDRLPRP,-0.0627
12,RRIRYRPPRLPRPRPRPRCLPRP,-0.0564
13,RRIRPRPPRLPRPRPRPWCIPRP,-0.519
14,RRIRPRPPRLPRPRPRPVPVPRP,0.136
15,RRIRIRPPRLPRPRPRPAWWPRP,0.0406
16,RRIRIRPPRLPRPRPRPMFVPRP,-0.279
17,RRIRMRPPRLPRPRPRPICDPRP,0.36
18,RRIRRRPPRLPRPRPRPFNIPRP,-0.491
19,RRIRFRPPRLPRPRPRPEQHPRP,1.53
20,RRIRARPPRLPRPRPRPMFVPRP,-0.134
21,RRIRSRPPRLPRPRPRPRHVPRP,-0.0732
22,RRIRKRPPRLPRPRPRPSWFPRP,-0.168
23,RRIRPRPPRLPRPRPRPRSPPRP,0.592
24,RRIRPRPPRLPRPRPRPWCPPRP,2.07
25,RRIRVRPPRLPRPRPRPGKPPRP,0.0464

row,Sequence,shrunken log2 fold change
1,RRIRLRPPRLPRPRPRPQYRPRP,-0.188
2,RRIRPRPPRLPRPRPRPWNDPRP,0.0243
3,RRIRHRPPRLPRPRPRPPRLPRP,0.0241
4,RRIRQRPPRLPRPRPRPKVCPRP,-0.193
5,RRIRIRPPRLPRPRPRPAWVPRP,0.0748
6,RRIRLRPPRLPRPRPRPCYYPRP,-0.936
7,RRIRVRPPRLPRPRPRPLTVPRP,0.0473
8,RRIRDRPPRLPRPRPRPSLPPRP,-0.00636
9,RRIRCRPPRLPRPRPRPICYPRP,-0.358
10,RRIRCRPPRLPRPRPRPTYQPRP,-0.346
11,RRIRIRPPRLPRPRPRPAFMPRP,-0.3
12,RRIRPRPPRLPRPRPRPWLHPRP,-0.173
13,RRIRLRPPRLPRPRPRPGVQPRP,0.0642
14,RRIRVRPPRLPRPRPRPYDTPRP,1.6
15,RRIRARPPRLPRPRPRPSCEPRP,0.128
16,RRIRMRPPRLPRPRPRPYACPRP,-0.0298
17,RRIRWRPPRLPRPRPRPGTEPRP,0.403
18,RRIRDRPPRLPRPRPRPCTNPRP,-0.0463
19,RRIRSRPPRLPRPRPRPKENPRP,-0.0465
20,RRIRSRPPRLPRPRPRPQDNPRP,-0.362
21,RRIRFRPPRLPRPRPRPTCQPRP,-0.0887
22,RRIRPRPPRLPRPRPRPSIMPRP,-0.552
23,RRIRMRPPRLPRPRPRPEKVPRP,1.45
24,RRIRPRPPRLPRPRPRPYLIPRP,-0.445
25,RRIRQRPPRLPRPRPRPCKLPRP,-0.167

row,Sequence,shrunken log2 fold change
1,RRIRQRPPRLPRPRPRPWYNPRP,-0.375
2,RRIRKRPPRLPRPRPRPHDPPRP,0.282
3,RRIRERPPRLPRPRPRPQMTPRP,-0.312
4,RRIRMRPPRLPRPRPRPKKHPRP,0.405
5,RRIRHRPPRLPRPRPRPPPDPRP,0.646
6,RRIRWRPPRLPRPRPRPIDHPRP,-0.166
7,RRIRWRPPRLPRPRPRPVVDPRP,0.0903
8,RRIRARPPRLPRPRPRPHWNPRP,-0.0187
9,RRIRVRPPRLPRPRPRPLYQPRP,-0.0431
10,RRIRHRPPRLPRPRPRPHEMPRP,-0.257
11,RRIRFRPPRLPRPRPRPPNVPRP,0.0696
12,RRIRSRPPRLPRPRPRPMWVPRP,-0.0635
13,RRIRERPPRLPRPRPRPFPCPRP,-0.0816
14,RRIRMRPPRLPRPRPRPRSNPRP,0.13
15,RRIRWRPPRLPRPRPRPWRVPRP,-0.245
16,RRIRDRPPRLPRPRPRPPWKPRP,0.141
17,RRIRERPPRLPRPRPRPKFWPRP,0.375
18,RRIRVRPPRLPRPRPRPDKSPRP,-0.0971
19,RRIRMRPPRLPRPRPRPMSFPRP,-0.0179
20,RRIRCRPPRLPRPRPRPSEEPRP,-0.0443
21,RRIRRRPPRLPRPRPRPDIIPRP,-0.135
22,RRIRQRPPRLPRPRPRPHLKPRP,-0.0175
23,RRIRERPPRLPRPRPRPCFHPRP,-0.327
24,RRIRGRPPRLPRPRPRPIRQPRP,-0.0411
25,RRIRDRPPRLPRPRPRPPVIPRP,0.0554

row,Sequence,shrunken log2 fold change
1,RRIRWRPPRLPRPRPRPTCTPRP,0.441
2,RRIRARPPRLPRPRPRPALKPRP,0.825
3,RRIRIRPPRLPRPRPRPGGKPRP,-0.31
4,RRIRIRPPRLPRPRPRPHDAPRP,-0.175
5,RRIRLRPPRLPRPRPRPYHSPRP,-0.018
6,RRIRHRPPRLPRPRPRPEWDPRP,0.00396
7,RRIRQRPPRLPRPRPRPPTEPRP,-0.153
8,RRIRDRPPRLPRPRPRPIMDPRP,0.308
9,RRIRLRPPRLPRPRPRPIVRPRP,-0.151
10,RRIRSRPPRLPRPRPRPCPMPRP,-0.337
11,RRIRSRPPRLPRPRPRPIPKPRP,0.125
12,RRIRKRPPRLPRPRPRPKEIPRP,0.00103
13,RRIRCRPPRLPRPRPRPPTPPRP,0.776
14,RRIRFRPPRLPRPRPRPYNMPRP,-0.725
15,RRIRMRPPRLPRPRPRPPNGPRP,0.234
16,RRIRGRPPRLPRPRPRPVISPRP,0.623
17,RRIRGRPPRLPRPRPRPSPEPRP,0.498
18,RRIRPRPPRLPRPRPRPMGFPRP,-0.0125
19,RRIRCRPPRLPRPRPRPDMRPRP,0.018
20,RRIRGRPPRLPRPRPRPMNFPRP,-0.0655
21,RRIRLRPPRLPRPRPRPLLNPRP,-0.468
22,RRIRNRPPRLPRPRPRPCWCPRP,-0.147
23,RRIRWRPPRLPRPRPRPTDAPRP,-0.0515
24,RRIRRRPPRLPRPRPRPRWKPRP,-0.0516
25,RRIRCRPPRLPRPRPRPTDMPRP,-0.16

row,Sequence,shrunken log2 fold change
1,RRIRIRPPRLPRPRPRPASFPRP,-0.167
2,RRIRFRPPRLPRPRPRPWHKPRP,-0.413
3,RRIRSRPPRLPRPRPRPTLWPRP,0.448
4,RRIRYRPPRLPRPRPRPRHAPRP,-0.0916
5,RRIRWRPPRLPRPRPRPNFRPRP,0.298
6,RRIRKRPPRLPRPRPRPMLGPRP,0.00289
7,RRIRGRPPRLPRPRPRPGQIPRP,0.352
8,RRIRYRPPRLPRPRPRPYNTPRP,-1.88
9,RRIRKRPPRLPRPRPRPDQPPRP,-0.018
10,RRIRWRPPRLPRPRPRPHQIPRP,-0.154
11,RRIRGRPPRLPRPRPRPDYRPRP,0.127
12,RRIRYRPPRLPRPRPRPTCGPRP,0.0163
13,RRIRIRPPRLPRPRPRPDDWPRP,-0.0592
14,RRIRQRPPRLPRPRPRPHIIPRP,-0.362
15,RRIRTRPPRLPRPRPRPEHDPRP,-0.0214
16,RRIRWRPPRLPRPRPRPQLIPRP,-0.153
17,RRIRARPPRLPRPRPRPPDTPRP,0.764
18,RRIRDRPPRLPRPRPRPIRVPRP,-0.185
19,RRIRMRPPRLPRPRPRPCTFPRP,-0.209
20,RRIRTRPPRLPRPRPRPLAWPRP,0.195
21,RRIRKRPPRLPRPRPRPHEVPRP,-0.00968
22,RRIRYRPPRLPRPRPRPKMCPRP,0.00281
23,RRIRVRPPRLPRPRPRPGEPPRP,0.043
24,RRIRPRPPRLPRPRPRPHNIPRP,-0.546
25,RRIRARPPRLPRPRPRPTQHPRP,0.698

row,Sequence,shrunken log2 fold change
1,RRIRERPPRLPRPRPRPKTLPRP,-0.185
2,RRIRLRPPRLPRPRPRPWDGPRP,-0.153
3,RRIRCRPPRLPRPRPRPEGQPRP,0.788
4,RRIRFRPPRLPRPRPRPEETPRP,0.00709
5,RRIRWRPPRLPRPRPRPLSVPRP,0.0836
6,RRIRWRPPRLPRPRPRPFQFPRP,-0.198
7,RRIRIRPPRLPRPRPRPSFCPRP,-0.656
8,RRIRRRPPRLPRPRPRPSGDPRP,0.233
9,RRIRQRPPRLPRPRPRPHDWPRP,-0.372
10,RRIRDRPPRLPRPRPRPTRVPRP,0.0497
11,RRIRFRPPRLPRPRPRPDAWPRP,0.0823
12,RRIRYRPPRLPRPRPRPLAWPRP,-0.0165
13,RRIRSRPPRLPRPRPRPWYVPRP,-0.36
14,RRIRERPPRLPRPRPRPGAGPRP,0.395
15,RRIRNRPPRLPRPRPRPVYDPRP,-0.386
16,RRIRVRPPRLPRPRPRPLNIPRP,-0.0458
17,RRIRRRPPRLPRPRPRPTQEPRP,0.212
18,RRIRHRPPRLPRPRPRPSHGPRP,-0.137
19,RRIRVRPPRLPRPRPRPCILPRP,-0.208
20,RRIRCRPPRLPRPRPRPGGIPRP,-0.329
21,RRIRMRPPRLPRPRPRPICYPRP,-0.119
22,RRIRNRPPRLPRPRPRPKQNPRP,0.0598
23,RRIRGRPPRLPRPRPRPLGHPRP,0.595
24,RRIRYRPPRLPRPRPRPYCWPRP,-1.07
25,RRIRCRPPRLPRPRPRPTHLPRP,0.232
